This passage reports fold increase of co-precipitated V5-Apobec3A results from publication PMC10294656.

The target in the assay is human apolipoprotein-B mRNA-editing catalytic polypetide-like 3A protein (human) (UniProt P31941). As to the kind of experiment: co-IP; HepaRG cells cotransfected with pLenti6.3-Apobec3A-V5 and pEYFP-Apobec3A, mock-infected or infected with HAdV wt (50 ffu/cell), harvested 24 and 48 hpi; whole-cell lysates; YFP-Apobec3A held on ChromoTek GFP-Trap agarose beads, V5-Apobec3A detected by Western blot; V5 signal normalised to input and β-actin. In general terms: Immunoblotting shows a protein as a band on a membrane.

Chain of human apolipoprotein-B mRNA-editing catalytic polypetide-like 3A protein, P31941 1-199 (enzyme; other documents disagree on this pair) (P31941 whole entry): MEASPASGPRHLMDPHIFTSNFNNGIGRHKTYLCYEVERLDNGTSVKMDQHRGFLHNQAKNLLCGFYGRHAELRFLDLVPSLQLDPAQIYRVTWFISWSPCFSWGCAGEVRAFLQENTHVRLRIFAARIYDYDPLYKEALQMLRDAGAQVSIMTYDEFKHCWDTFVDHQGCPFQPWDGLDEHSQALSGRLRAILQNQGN

Turning to “human apolipoprotein-B mRNA-editing catalytic polypetide-like 3A protein, P31941 1-199 (enzyme; other documents disagree on this pair)”, the fold increase of co-precipitated V5-Apobec3A at 48 h after HAdV infection against mock stood at 10 fold.
